Test results reported in patent US20240417458A1.

Biological target: FcRn
Experiment: SPR (BIAcore) at pH 6.0

FcRn, sequence (P55899 24-297, chain 1 of 2): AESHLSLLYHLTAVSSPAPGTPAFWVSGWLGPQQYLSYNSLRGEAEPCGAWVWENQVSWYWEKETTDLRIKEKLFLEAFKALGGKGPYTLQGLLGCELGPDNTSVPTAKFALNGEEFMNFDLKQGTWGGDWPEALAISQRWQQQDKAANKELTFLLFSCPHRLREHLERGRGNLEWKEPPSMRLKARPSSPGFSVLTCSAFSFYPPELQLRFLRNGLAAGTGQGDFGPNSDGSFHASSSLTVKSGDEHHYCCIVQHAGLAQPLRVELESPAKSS
FcRn, sequence (P61769 21-119, chain 2 of 2, further chain): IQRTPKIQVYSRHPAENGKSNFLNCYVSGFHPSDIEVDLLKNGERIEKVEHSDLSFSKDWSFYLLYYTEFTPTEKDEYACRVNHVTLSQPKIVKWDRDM

| Substance | Kd |
| --- | --- |
| Non-specific IgG1 (antibody) | 1.64 µM |
| Non-specific IgG4 (antibody) | 3.64 µM |
